Measured values taken from US11994512B2, “Single-cell genomic methods to generate ex vivo cell systems that recapitulate in vivo biology with improved fidelity” (Massachusetts Institute of Technology, priority 2018, dated 2024).

B1: Q8VE33 (protein, UniProt Q8VE33 1-370, looked up)
chain: MATPNNLTPTNCSWWPISALESDAAKPVETPDAPEASSPAHWPKESLVLYHWTQSFSSQKRLQVRLVIAEKGLACEERDVSLPQSEHKEPWFMRLNLGEEVPVIIHRDNIISDYDQIIDYVERTFTGEHVVALMPEAGSPQHARVLQYRELLDALPMDAYTHGCILHPELTTDSMIPKYATAEIRRHLANATTDLMKLDHEEEPQLSEPYLSKQKKLMAKILEHDDVSYLKKILGELAMVLDQIEAELEKRKLENEGQTCELWLCGCAFTLADVLLGATLHRLKFLGLSKKYWEDGSRPNLQSFFERVQRRFAFRKVLGDIHTTLLSAVIPNAFRLVKRKPPSFFGASFLMGSLGGMGYFAYWYLKKKYI
modifications: full-length
B2: Q8VCI0 (protein, UniProt Q8VCI0 1-550, looked up)
chain: MCHRSPGRSLRPPSPLLLLLPLLLQPPWAAGAASQSDPTGVHCATAYWSPESKKVEIKTVLDKNGDAYGYYNDSIKTTGWGILEIRAGYGSQVLSNEIIMFLAGYLEGYLTALHMYDHFTNLYPQLIKNPSIVKKVQDFMEKQEMWTRQNIKAQKDDPFWRHTGYVVTQLDGLYLGAQKRASEEKIKPMTMFQIQFLNAVGDLLDLIPSLSPTKSSSMMKFKIWEMGHCSALIKVLPGFENIYFAHSSWYTYAAMLRIYKHWDFNIKDKYTLSKRLSFSSYPGFLESLDDFYILSSGLILLQTTNSVYNKTLLKQVVPKTLLAWQRVRVANMMAEGGKEWAQIFSKHNSGTYNNQYMVLDLKKVTINRSLDKGTLYIVEQIPTYVEYSDQTNVLRKGYWASYNIPFHKTIYNWSGYPLLVHKLGLDYSYDLAPRAKIFRRDQGNVTDMASMKYIMRYNNYKEDPYSKGDPCSTICCREDLNGASPSPGGCYDTKVADIFLASQYKAYAISGPTVQDGLPPFNWNRFNETLHRGMPEVFDFNFVTMKPILS
modifications: full-length
B3: Q8K4B2 (protein, UniProt Q8K4B2 1-609, looked up)
chain: MAGRCGARGALSPQLLLFDLPPALLGELCGILDSCDGPLGWRGLAERLSNSWLDVRHIEKYVNQGKSGTRELLWSWAQKNKTIGDLLEVLQDMGHQRAIHLIINYGVSWTPSVQTHHELPFPSFPPEVKHACRENDPGPLEPANVTVDNVLVPEHNEKGTLQKTPISFQSILEGTKHFHKDFLIGEGEIFEVYRVDIRNQAYAVKLFKQEKKMQLKKHWKRFLSELEVLLLFRHPHILELAAYFTETEKLCLVYPYMSNGTLFDRLQCTNGTTPLSWHVRISVLIGIAKAIQYLHNTQPCAVICGNVSSANILLDDQLQPKLTDFAAAHFRPNLEQQSSTINMTGGGRKHLWYMPEEYIRQGRLSVKTDVYSFGIVIMEVLTGCKVVLDDPKHVQLRDLLMELMEKRGLDSCLSFLDRKIPPCPRNFSAKLFSLAGRCVATKAKLRPTMDEVLSSLESTQPSLYFAEDPPTSLKSFRCPSPLFLDNVPSIPVEDDENQNNHSVPPKEVLGTDRVTQKTPFECSQSEVTFLGLDRNRGNRGSEADCNVPSSSHEECWSPELVAPSQDLSPTVISLGSSWEVPGHSYGSKPMEKRCSSGLFCSEHEQSKKQ
modifications: full-length
B4: Q8K4R4 (protein, UniProt Q8K4R4 1-332, looked up)
chain: MLLKEYRICMPLTVDEYKIGQLYMISKHSHEQSDRGEGVEVVQNEPFEDPHHGNGQFTEKRVYLNSKLPSWARAVVPKIFYVTEKAWNYYPYTITEYTCSFLPKFSIHIETKYEDNKGSNDSIFDSEAKDLEREVCFIDIACDEIPERYYKESEDPKHFKSEKTGRGQLREGWRDNHQPIMCSYKLVTVKFEVWGLQTRVEQFVHKVVRDILLIGHRQAFAWVDEWYDMTMDEVREFERATQEATNKKIGVFPPAISISSIALLPSSVRSAPSSAPSTPLSTDAPEFLSIPKDRPRKKSAPETLTLPDPEKKATLNLPGVYTSEKPCRPKSE
modifications: full-length
B5: Q8VEE1 (protein, UniProt Q8VEE1 1-365, looked up)
chain: MAKVAKDLNPGVQKMSLGQQQSARGVACLRCKGMCSGFEPHSWRKICKSCKCSQEEHCLSSDLDDDRKIGRLLMDSKYATLTARVKGGDGIRIYKRNRMIMTNPIATGKDPTFDTITYEWAPPGVTQKLGLQYMELIPKERQPVTGTEGALYRRRQLMHQLPIYDQDPSRCRGLVENELKAMEEFVKHYKSEALGVGEVALPGQGGLPKEENKTQEKPEGTETTAPTTNGSLGDPSKEVEYVCELCKGAAPVDSPVVYADRAGYSKQWHPTCFQCIKCSEPLVDLIYFWKDGAPWCGRHYCESVRPRCSGCDEIIFSEDYQRVEDLAWHRKHFICEGCEQLLSGRAYIVTKGQLLCPTCSKSKRS
modifications: full-length
B6: Q8VHC3 (protein, UniProt Q8VHC3 1-145, looked up)
chain: MSILLSPPSLLLLLAALVAPATSTTNYRPDWNRLRGLARGRVETCGGUQLNRLKEVKAFVTEDIQLYHNLVMKHLPGADPELVLLSRNYQELERIPLSQMTRDEINALVQELGFYRKSAPEAQVPPEYLWAPAKPPEEASEHDDL
modifications: full-length
B7: Q8VCT4 (protein, UniProt Q8VCT4 1-565, looked up)
chain: MGLYPLIWLSLAACTAWGYPSSPPVVNTVKGKVLGKYVNLEGFTQPVAVFLGVPFAKPPLGSLRFAPPQPAEPWSFVKNTTSYPPMCSQDAVGGQVLSELFTNRKENIPLQFSEDCLYLNIYTPADLTKNSRLPVMVWIHGGGLVVGGASTYDGLALSAHENVVVVTIQYRLGIWGFFSTGDEHSRGNWGHLDQVAALRWVQDNIANFGGNPGSVTIFGESAGGFSVSVLVLSPLAKNLFHRAISESGVSLTAALITTDVKPIAGLVATLSGCKTTTSAVMVHCLRQKTEDELLETSLKLNLFKLDLLGNPKESYPFLPTVIDGVVLPKAPEEILAEKSFSTVPYIVGINKQEFGWIIPTLMGYPLAEGKLDQKTANSLLWKSYPTLKISENMIPVVAEKYLGGTDDLTKKKDLFQDLMADVVFGVPSVIVSRSHRDAGASTYMYEFEYRPSFVSAMRPKAVIGDHGDEIFSVFGSPFLKDGASEEETNLSKMVMKFWANFARNGNPNGGGLPHWPEYDQKEGYLKIGASTQAAQRLKDKEVSFWAELRAKESAQRPSHREHVEL
modifications: full-length
B8: Q8R550 (protein, UniProt Q8R550 1-709, looked up)
chain: MVEAIVEFDYQAQHDDELTISVGEVITNIRKEDGGWWEGQINGRRGLFPDNFVREIKKDMKKDLLSNKAPEKPMHDVSSGNALLSSETILRTNKRGERRRRRCQVAFSYLPQNDDELELKVGDIIEVVGEVEEGWWEGVLNGKTGMFPSNFIKELSGESDELGISQDEQLSKSRPEGFLPASLLPFPAHGAKGKTTFEGTILYRAAPGKTEGHRRYYSLRETTGSESDGGDSSSTKSEGANGTMATAAIQPKKVKGVGFGDIFKDKPIKLRPRSIEVENDFLPVEKTIGKKLPPATSTPDPSKTEMDSRTKTKDYCKVIFPYEAQNDDELTIKEGDIVTLINKDCIDVGWWEGELNGRRGVFPDNFVKLLPSDFDKEGNRPKKPPPPSAPVVKQGAGTTERKHEIKKIPPERPETLPNRTEEKERPEREPKLDLQKPSVPAIPPKKPRPPKTNSLNRPGALPPRRPERPVGPLTHTRGDSPKIDLAGSALSGILDKDLSDRSNDIDLEGFDSVISSTEKLSHPTTSRPKATGRRPPSQSLTSSSLSSPDIFDSPSPEEDKEEHISLAHRGIDVSKKTSKTVTISQVSDNKTSLPPKPGTMAAASSGPASLSSVASSPMSSSLGTAGQRASSPSLFSTEGKPKMEPAVSSQAAIEELKMQVRELRTIIETMKDQQKREIKQLLSELDEEKKIRLRLQMEVNDIKKALQSK
modifications: full-length

Tested on: intracellular proteome of ENR+CD and ENR organoids
Experiment: LC-MS/MS TMT proteomics of ENR+CD versus ENR organoids
Type: cell-based, C57BL/6 mice
Settings: for Average logFC: ENR+CD versus ENR organoids, sample pairs in aggregate (n=4, 2 technical replicates from two biological donors); for M1-1 Log2 Median Normalized / M1-2 Log2 Median Normalized / M2-1 Log2 Median Normalized / M2-2 Log2 Median Normalized: protein abundance ratio ENR+CD versus ENR organoids, LC-MS/MS TMT proteomics; for M1-1 Log2 Median Normalized: sample pair M1-1; for M1-2 Log2 Median Normalized: sample pair M1-2; for M2-1 Log2 Median Normalized: sample pair M2-1; for M2-2 Log2 Median Normalized: sample pair M2-2; for change: up = enriched in ENR+CD, down = enriched in ENR, FDR<0.05 and log fold change cut-off

Molecule | Average logFC | M1-1 Log2 Median Normalized | M1-2 Log2 Median Normalized | M2-1 Log2 Median Normalized | M2-2 Log2 Median Normalized | change
B1 | 1.453 | 2.102 | 0.932 | 1.1705 | 1.609 | up
B2 | −1.188 | −1.187 | −1.193 | −1.4105 | −0.754 | down
B3 | 1.198 | 1.448 | 0.943 | 1.1955 | 1.204 | up
B4 | 1.235 | 1.072 | 0.913 | 1.6335 | 1.321 | up
B5 | −1.258 | −1.327 | −1.525 | −1.0345 | −1.145 | down
B6 | 1.481 | 1.688 | 1.48 | 1.1495 | 1.521 | up
B7 | −1.924 | −1.923 | −1.965 | −2.3285 | −1.001 | down
B8 | 1.492 | 1.738 | 1.082 | 1.8435 | 1.303 | up
